The target of the experiment is TAF-4 (UniProt O61707). The experiment in a line: membrane recruitment of GFP::TAF-4 by Myr::FLAG::OMA-1-FL. Conditions: sites T239.

Data on 2 substances can be found in publication PMC2652481.

With “OMA-1 (from UniProt G5EC86) MBK-2 coexpressed”, the “other: percent of cells with membrane GFP::TAF-4” value runs as follows: (reference: kinase-dead MBK-2 (Y237A) coexpressed) “stronger; reference 16”; (reference: no MBK-2 coexpressed) “stronger; reference 8”.

With “OMA-1 (from UniProt G5EC86) T239A with MBK-2”, the “other: percent of cells with membrane GFP::TAF-4” value (reference: wild type OMA-1-FL with MBK-2) was “weaker; reference 48”.
